From patent US5223421A, “Identification of methionine Nα-acetyltransferase” (The General Hospital Corporation, priority 1990, dated 1993) come the findings set out here.

The assay concerns the target T1, yeast methionine acetyltransferase (M-N^α AT) (Saccharomyces cerevisiae, UniProt Q06504).
T1 construct: a crude yeast homogenate from the aaa1 mutant strain; endogenous in cells; host or cells: Saccharomyces cerevisiae strain T3A-a (aaa1), crude lysate
T1 sequence (Q06504 1-195): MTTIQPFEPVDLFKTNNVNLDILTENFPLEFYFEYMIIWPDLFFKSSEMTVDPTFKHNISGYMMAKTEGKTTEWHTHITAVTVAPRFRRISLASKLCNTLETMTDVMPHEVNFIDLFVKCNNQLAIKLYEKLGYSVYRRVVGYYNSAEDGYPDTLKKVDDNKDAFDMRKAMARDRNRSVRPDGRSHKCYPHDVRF
T1 sequence (Q12387 2-796 partner limits assumed): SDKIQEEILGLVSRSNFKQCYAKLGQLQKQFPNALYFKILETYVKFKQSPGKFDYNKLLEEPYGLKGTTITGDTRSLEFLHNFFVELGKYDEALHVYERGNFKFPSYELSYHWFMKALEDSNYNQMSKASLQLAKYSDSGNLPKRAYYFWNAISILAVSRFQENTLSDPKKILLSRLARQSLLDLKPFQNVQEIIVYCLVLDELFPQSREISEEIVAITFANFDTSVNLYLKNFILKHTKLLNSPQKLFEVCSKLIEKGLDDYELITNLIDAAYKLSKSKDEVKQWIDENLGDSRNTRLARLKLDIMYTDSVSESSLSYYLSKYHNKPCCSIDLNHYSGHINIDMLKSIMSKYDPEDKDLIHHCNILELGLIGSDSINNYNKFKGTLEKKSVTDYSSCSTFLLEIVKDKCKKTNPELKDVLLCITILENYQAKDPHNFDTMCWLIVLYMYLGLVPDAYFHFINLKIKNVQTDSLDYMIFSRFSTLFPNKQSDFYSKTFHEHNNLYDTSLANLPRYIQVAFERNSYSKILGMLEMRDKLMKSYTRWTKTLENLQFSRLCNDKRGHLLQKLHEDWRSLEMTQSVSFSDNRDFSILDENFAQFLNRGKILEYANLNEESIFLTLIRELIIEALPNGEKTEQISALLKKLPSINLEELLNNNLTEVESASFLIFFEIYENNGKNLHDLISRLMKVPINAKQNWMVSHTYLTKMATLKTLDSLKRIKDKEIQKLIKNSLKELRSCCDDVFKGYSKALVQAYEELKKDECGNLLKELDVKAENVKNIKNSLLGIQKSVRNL
Kind of assay: Relative activity of yeast methionine acetyltransferase for N^α -acetylation of synthetic peptides (PAI analogues). Format: biochemical. Also noted: tested at 50 µM. The note with it: Table 5; mean ± SD (N=3-5); normalized to yeast proteinase A inhibitor 3. The protocol:
N^α -acetyltransferase activity was determined as previously described [Lee et al., J. Biol. Chem. 263:14948-14955 (1988)]. Aliquots of the lysate or chromatographic fractions were added to 1.5 ml Eppendorf tubes containing a reaction mixture of 50 mM HEPES, pH 7.4, 150 mM KCl, 1 mM DTT, 25 μM [^3 H] acetyl coenzyme A (0.5 μCi) and 50 μM synthetic peptide with an adjusted final volume of 100 μl. The assay mixture was incubated at 30° C. for 30 min. The reaction was stopped by adding 17 μl of 0.5M acetic acid and chilled in an ice bath. The reaction samples were filtered through SP membrane discs (Cuno) (previously pre-swollen in 0.5M acetic acid), and then washed three times with 1 ml of 0.5M acetic acid on a Millipore 1225 sampling manifold. The partially dried membranes were placed in scintillation cocktail and counted with a Beckman LS 3801 scintillation counter. One unit of activity was defined as the amount of enzyme able to transfer 1 pmol of [^3 H] acetyl group from [^3 H] acetyl coenzyme A to synthetic peptide per min under standard enzyme assay conditions defined above.
Proteinase A inhibitor 3 (PAI) (Tsunasawa et al., Methods Enzymol. 106:165-170 (1984); Wold, F., Trends Biochem Sci. 9:256-267 (1984); Driessen et al., CRC Crit. Rev. Biochem 18:281-325 (1985); Mullen et al., EMBO J. 8:2067-2075 (1989); Lee et al., J. Bacteriol. 171:5795-5802 (1989); Hershko et al., Proc. Natl. Acad. Sci. USA 81:7021-7025 (1984); Bachmair et al., Science 234:179-186 (1986); Arfin et al., Biochemistry 27:7979-7984 (1988); Persson et al., Eur. J. Biochem. 152:523-527 (1985); Huang al., Biochemistry 26:8242-8246 (1987); Lee et al., J. Biol. Chem. 263:14948-14955 (1988); Kamitani et al., J. Biol. Chem. 264:13188-13193 (1989)) is the only known yeast protein which is acetylated at its NH2 -terminal methionine residue (Biedermann et al., Carlsberg Res. Commun. 45:225-235 (1980)). […] The numbers in parentheses refer to the residue numbers, and the letters in parentheses refer to the amino acid sequence Abbreviations are as in FIG. 1. Data are reported as mean activity ±SD (N=3-5) and are normalized to the activity of the homogenate towards yeast proteinase A inhibitor 3. The sequence of this protein is:
Thus, by using PAI, its analogues and other peptides, the structural features of M-N^α AT substrates were studied. […] Only three of nineteen analogues were acetylated, although the efficiency of their acetylation varied from 9-55% (Asp>Glu>Gln). Although it was shown previously that iso-cytochrome c variant proteins (Met-Ile-Arg - - -, Met-Ile-Lys - - -, Met-Met-Asn - - -) can be N^α -acetylated in vivo (Tsunasawa et al., J. Biol. Chem. 260:5382-5391 (1985)), synthetic peptides mimicking the NH2 -terminal 24 amino acid residues of these iso-cytochrome c variants were not acetylated by the yeast M-N^αAT.

As to “MNTDQQKVSEIFQSSKEKLQGDAK (MNTDQQKVSEIFQSSKEKLQGDAK) [Proteinase A Inhibitor 3 (1-24) (Yeast)]”, the “Activity (%)” value is 100 ± 5%.
